Reference: patent US5556780A, “CDNAS encoding mouse and rat type-2 angiotensin II receptors and their expression in host cells” (The Board of Trustees for the Leland Stanford Junior …, priority 1993, dated 1996)

Key:
[1] = target: T1, mouse AT2 receptor (Mus musculus, UniProt P35374); experiment: [125I]CGP42112A binding / displacement on membranes of COS-7 cells transfected with mouse AT2 receptor cDNA (MC5); conditions: 0.2 nM [125I]CGP42112A
T1 construct: expressed in transfected cells; host or cells: COS-7
T1 sequence (P35374 1-363): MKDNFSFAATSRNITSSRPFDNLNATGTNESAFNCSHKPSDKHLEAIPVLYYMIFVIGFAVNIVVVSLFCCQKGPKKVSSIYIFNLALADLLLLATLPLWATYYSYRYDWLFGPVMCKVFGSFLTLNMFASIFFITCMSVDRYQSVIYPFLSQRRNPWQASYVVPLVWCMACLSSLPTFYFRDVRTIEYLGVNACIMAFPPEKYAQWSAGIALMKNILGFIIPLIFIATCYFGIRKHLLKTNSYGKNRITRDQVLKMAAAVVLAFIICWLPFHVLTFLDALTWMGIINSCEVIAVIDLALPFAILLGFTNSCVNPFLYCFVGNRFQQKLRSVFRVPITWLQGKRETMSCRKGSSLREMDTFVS
Text: Materials. […] Louis, Mo.). […] Expression in COS-7 Cells and Ligand Binding Assay. […] The transfected cells were harvested and homogenized. The 100,000×g pellet of this homogenate was suspended and used as a membrane fraction.

[2] = tested on: mouse AT1b receptor; experiment: Emulsion autoradiography of 125I-[Sar1,Ile8]-Ang II binding to transfected COS-7 cells (positive control); conditions: 1 uM DuP753; 200 pM radioligand, 2 h, room temperature
Experimental: cDNA prepared from size-fractionated (>1 kb) poly(A)^+ RNA (Sprague-Dawley whole rat fetus, 18 days postcoitum) was ligated into an expression vector pcDNAI (Invitrogen), and amplified in 900 pools of 1,000 clones. Plasmid DNA prepared from every 8 pools by the alkali lysis method was transfected over 2-3 h using DEAE-dextran/chloroquine into COS-7 cells grown on glass chamber slides (Nunc) (Mathews, L. S. & Vale, W. W. Cell 65, 973-982 (1991)). […] Cells were then washed four times with cold 50 mM Tris-HCl, pH 7.4, fixed with 0.1% glutaraldehyde at 4 C and subjected to emulsion autoradiography (Mathews, L. S. & Vale, W. W. Cell 65, 973-982 (1991)). […] Positive pool (RF904) which gave 20 DuP753-resistant positive cells was divided into subpools and rescreened, and after three rounds of screening a single clone pMRAT2 was isolated. Sequencing of both strands of clone pMRAT2 was done by the dideoxy chain termination method with Sequenase (USB).

[3] = target: T2, rat AT2 receptor (Rattus norvegicus, UniProt P35351); experiment: Radioligand binding / displacement of 125I-CGP42112A on membranes of pMRAT2-transfected COS-7 cells; conditions: for order of inhibition potency (competition profiles): displacement of 125I-CGP42112A
T2 construct: pMRAT2, a rat AT2 receptor full-length cDNA cloned into the expression vector pcDNA I; expressed in transfected cells; host or cells: COS-7 (transient)
T2 sequence (P35351 1-363): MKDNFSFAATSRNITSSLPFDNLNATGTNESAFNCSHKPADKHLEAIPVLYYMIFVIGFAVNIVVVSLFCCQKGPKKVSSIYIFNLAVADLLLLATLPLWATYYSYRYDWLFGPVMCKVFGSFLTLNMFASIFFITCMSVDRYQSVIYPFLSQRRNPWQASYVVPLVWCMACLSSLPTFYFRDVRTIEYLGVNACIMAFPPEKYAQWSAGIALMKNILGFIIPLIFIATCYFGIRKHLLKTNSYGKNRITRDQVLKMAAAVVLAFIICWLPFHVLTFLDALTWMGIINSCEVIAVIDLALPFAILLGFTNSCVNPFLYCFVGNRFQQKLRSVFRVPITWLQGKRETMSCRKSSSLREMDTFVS
Experimental: cDNA prepared from size-fractionated (>1 kb) poly(A)^+ RNA (Sprague-Dawley whole rat fetus, 18 days postcoitum) was ligated into an expression vector pcDNAI (Invitrogen), and amplified in 900 pools of 1,000 clones. […] Sequencing of both strands of clone pMRAT2 was done by the dideoxy chain termination method with Sequenase (USB).
2 h after incubation at room temperature, bound and free ligands were separated with GF/C filters (Whatman). […] Each experiment was carried out at least twice in duplicate, and the results shown here represent one experiment.

[4] = tested on: cloned AT2 receptor; experiment: Intracellular IP3 levels in AT2-transfected COS-7 cells (radioreceptor assay); type: cell-based, rat; conditions: 1 uM Ang II, 15 sec, 37 C
Experimental: (§1) Intracellular IP3 levels were measured using radioreceptor assay (NEN). […] Cell fluorescence was measured with excitation at 340 nm and 380 nm. Ionomycin (10 uM) and EGTA (10 mM) were used for calibration.

[5] = tested on: cloned AT2 receptor; experiment: Intracellular calcium (fura-2) in AT2-transfected COS-7 cells; type: cell-based, rat; conditions: 1 uM Ang II
Experimental: as §1

[6] = target: rat AT2 receptor (angiotensin II type 2 receptor), clone pMRAT2 (rat); experiment: radioligand saturation binding, crude membranes of COS-7 cells transiently transfected with pMRAT2
[7] = target: rat AT2 receptor (angiotensin II type 2 receptor), clone pMRAT2 (rat); experiment: radioligand saturation binding, crude membranes of S293RAT2 cells (293 cells stably transfected with pMRAT2)
[8] = target: mouse AT2 receptor (angiotensin II type 2 receptor), clone MC5 (mouse); experiment: radioligand saturation binding with Scatchard plot, membrane fraction of COS-7 cells transfected with mouse AT2 receptor cDNA
[9] = target: rat AT2 receptor (angiotensin II type 2 receptor), clone pMRAT2 (rat); experiment: radioligand binding with DTT, membranes of COS-7 cells transfected with pMRAT2
[10] = target: T3, rat AT2 receptor (angiotensin II type 2 receptor), clone pMRAT2 (rat); experiment: expression cloning: emulsion autoradiography of transfected COS-7 cells, 200 pM radioligand with or without DuP753
T3 chain: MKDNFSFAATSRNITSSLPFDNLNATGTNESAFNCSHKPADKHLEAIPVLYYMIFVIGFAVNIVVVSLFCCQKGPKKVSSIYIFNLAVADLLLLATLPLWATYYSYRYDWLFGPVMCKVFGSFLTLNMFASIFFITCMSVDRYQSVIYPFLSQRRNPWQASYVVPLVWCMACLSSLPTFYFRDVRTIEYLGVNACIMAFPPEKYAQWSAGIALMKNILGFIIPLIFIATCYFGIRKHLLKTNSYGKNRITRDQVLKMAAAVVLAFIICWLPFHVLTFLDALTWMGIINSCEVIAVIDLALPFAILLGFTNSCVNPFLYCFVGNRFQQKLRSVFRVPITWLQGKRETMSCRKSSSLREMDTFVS
Experimental: cDNA prepared from size-fractionated (>1 kb) poly(A)^+ RNA (Sprague-Dawley whole rat fetus, 18 days postcoitum) was ligated into an expression vector pcDNAI (Invitrogen), and amplified in 900 pools of 1,000 clones. Plasmid DNA prepared from every 8 pools by the alkali lysis method was transfected over 2–3 h using DEAE-dextran/chloroquine into COS-7 cells grown on glass chamber slides (Nunc) (Mathews, L. S. & Vale, W. W. Cell 65, 973–982 (1991)). […] Cells were then washed four times with cold 50 mM Tris-HCl, pH 7.4, fixed with 0.1% glutaraldehyde at 4 C and subjected to emulsion autoradiography (Mathews, L. S. & Vale, W. W. Cell 65, 973–982 (1991)). […] Sequencing of both strands of clone pMRAT2 was done by the dideoxy chain termination method with Sequenase (USB).

[11] = target: mouse AT1b receptor (mouse, UniProt P29755); experiment: emulsion autoradiography of COS-7 cells transfected with the mouse AT1b receptor clone, 200 pM radioligand

CCCCc1nc(Cl)c(CO)n1Cc1ccc(-c2ccccc2-c2nn[nH]n2)cc1 [DuP753]
competition of [125I]CGP42112A binding ([1]; at a concentration up to 10^-5 M): virtually inactive | effect on positive staining (125I-[Sar1,Ile8]-Ang II binding) [2]: completely abolished | effect in competition (displacement of 125I-CGP42112A) ([3]; 150 pM radioligand): no effect

Ang II: Angiotensin II is an octapeptide hormone
increase of IP3 [4]: failed to increase | increase of intracellular calcium [5]: failed to increase

Cc1cc(Cn2cnc3c2C[C@@H](C(=O)O)N(C(=O)C(c2ccccc2)c2ccccc2)C3)ccc1N(C)C [PD123319]
rank order of competition of [125I]CGP42112A binding [1]: [Sar^1,Ile^8 ]-Ang II=CGP42112A≥Ang II>PD123319>Ang I | order of inhibition potency (competition profiles) ([3]; 150 pM radioligand): [Sar^1,Ile^8 ]-Ang II=CGP42112A≥Ang II>PD123319^10,15 >Ang I

[Sar^1,Ile^8 ]-Ang II: a non-selective Ang II receptor antagonist
rank order of competition of [125I]CGP42112A binding [1]: [Sar^1,Ile^8 ]-Ang II=CGP42112A≥Ang II>PD123319>Ang I | order of inhibition potency (competition profiles) ([3]; 150 pM radioligand): [Sar^1,Ile^8 ]-Ang II=CGP42112A≥Ang II>PD123319^10,15 >Ang I

[^125 I]CGP42112A (ligand)
Kd [6]: 0.17 nM | Kd [7]: 0.18 nM | Kd [8]: 0.12 nM

Ang I: Ang I, purchased from Sigma (DRVYIHPFHL)
rank order of competition of [125I]CGP42112A binding [1]: [Sar^1,Ile^8 ]-Ang II=CGP42112A≥Ang II>PD123319>Ang I | order of inhibition potency (competition profiles) ([3]; 150 pM radioligand): [Sar^1,Ile^8 ]-Ang II=CGP42112A≥Ang II>PD123319^10,15 >Ang I

Ang II: Angiotensin II is an octapeptide hormone (DRVYIHPF)
rank order of competition of [125I]CGP42112A binding [1]: [Sar^1,Ile^8 ]-Ang II=CGP42112A≥Ang II>PD123319>Ang I

CGP42112A (unlabelled) (ligand)
increase of binding affinity by DTT [9]: 50 to 100%

CGP42112A
rank order of competition of [125I]CGP42112A binding [1]: [Sar^1,Ile^8 ]-Ang II=CGP42112A≥Ang II>PD123319>Ang I | order of inhibition potency (competition profiles) ([3]; 150 pM radioligand): [Sar^1,Ile^8 ]-Ang II=CGP42112A≥Ang II>PD123319^10,15 >Ang I | increase of binding affinity by DTT ([3]; with DTT): 50-100%

B1: ^125 I-[Sar^1,Ile^8]-Ang II (peptide)
peptide: GRVYIHPI
modifications: Sar at position 1, Ile at position 8, 125I label, as printed ^125 I-[Sar^1,Ile^8]-Ang II
binding result [10]: binds | binding result [11]: binds
